According to the supplement of paper PMC11316812:
± gives the standard deviation of the averaged measurements.

Legend:
MCF7 = assay: percentage of EdU-negative (G0-arrested) nuclei per well, 72 h; higher = more G0 arrest; settings: reference: sequence is the full UniProt precursor, the tested protein was the secreted form or ectodomain
hTERT-HMEC = assay: as above; settings: reference: sequence is the full UniProt precursor, the tested protein was the secreted form or ectodomain
[1] = protein concentration 0.0215 µM
[2] = protein concentration 0.0225 µM
[3] = protein concentration 0.01425 µM
[4] = protein concentration 0.1425 µM
[5] = protein concentration 0.03125 µM
[6] = protein concentration 0.3125 µM
[7] = protein concentration 0.0283425 µM
[8] = protein concentration 0.283425 µM
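Further: secreted proteins added to cultured cells, EdU pulse at the end, nuclei found by Hoechst imaging, EdU status from nuclear versus surrounding ring intensity ratio, PBS as neutral control.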

Sequence | percentage of EdU-negative (MCF7; [2]) | percentage of EdU-negative (MCF7; protein concentration 0.225 µM) | percentage of EdU-negative (hTERT-HMEC; [2]) | percentage of EdU-negative (hTERT-HMEC; protein concentration 0.225 µM) | other results
MTPILTVLICLGLSLGPRTHVQAGHLPKPTLWAEPGSVITQGSPVTLRCQGGQETQEYRLYREKKTALWITRIPQELVKKGQFPIPSITWEHAGRYRCYYGSDTAGRSESSDPLELVVTGAYIKPTLSAQPSPVVNSGGNVILQCDSQVAFDGFSLCKEGEDEHPQCLNSQPHARGSSRAIFSVGPVSPSRRWWYRCYAYDSNSPYEWSLPSDLLELLVLGVSKKPSLSVQPGPIVAPEETLTLQCGSDAGYNRFVLYKDGERDFLQLAGAQPQAGLSQANFTLGPVSRSYGGQYRCYGAHNLSSEWSAPSDPLDILIAGQFYDRVSLSVQPGPTVASGENVTLLCQSQGWMQTFLLTKEGAADDPWRLRSTYQSQKYQAEFPMGPVTSAHAGTYRCYGSQSSKPYLLTHPSDPLELVVSGPSGGPSSPTTGPTSTSGPEDQPLTPTGSDPQSGLGRHLGVVIGILVAVILLLLLLLLLFLILRHRRQGKHWTSTQRKADFQHPAGAVGPEPTDRGLQWRSSPAADAQEENLYAAVKHTQPEDGVEMDTRSPHDEDPQAVTYAEVKHSRPRREMASPPSPLSGEFLDTKDRQAEEDRQMDTEAAASEAPQDVTYAQLHSLTLRREATEPPPSQEGPSPAVPSIYATLAIH [A0A0B4J1W1] |  |  |  |  | percentage of EdU-negative (MCF7; [1]): 23.2 ± 2.5%; percentage of EdU-negative (MCF7; protein concentration 0.215 µM): 25.3 ± 0.95%; percentage of EdU-negative (hTERT-HMEC; [1]): 4.85 ± 0.58%; percentage of EdU-negative (hTERT-HMEC; protein concentration 0.215 µM): 5.72 ± 0.22%
MCSRGWDSCLALELLLLPLSLLVTSIQGHLVHMTVVSGSNVTLNISESLPENYKQLTWFYTFDQKIVEWDSRKSKYFESKFKGRVRLDPQSGALYISKVQKEDNSTYIMRVLKKTGNEQEWKIKLQVLDPVPKPVIKIEKIEDMDDNCYLKLSCVIPGESVNYTWYGDKRPFPKELQNSVLETTLMPHNYSRCYTCQVSNSVSSKNGTVCLSPPCTLARSFGVEWIASWLVVTVPTILGLLLT | 25.8 ± 1.1% | 27.8 ± 2% | 4.77 ± 0.31% | 10.71 ± 0.089% | 
MARYMLLLLLAVWVLTGELWPGAEARAAPYGVRLCGREFIRAVIFTCGGSRWRRSDILAHEAMGDTFPDADADEDSLAGELDEAMGSSEWLALTKSPQAFYRGRPSWQGTPGVLRGSRDVLAGLSSSCCKWGCSKSEISSLC [Q8WXF3] | 26.3 ± 1.9% | 26.3 ± 0.94% | 4.41 ± 0.39% | 5.85 ± 0.42% | 
MERCPSLGVTLYALVVVLGLRATPAGGQHYLHIRPAPSDNLPLVDLIEHPDPIFDPKEKDLNETLLRSLLGGHYDPGFMATSPPEDRPGGGGGAAGGAEDLAELDQLLRQRPSGAMPSEIKGLEFSEGLAQGKKQRLSKKLRRKLQMWLWSQTFCPVLYAWNDLGSRFWPRYVKVGSCFSKRSCSVPEGMVCKPSKSVHLTVLRWRCQRRGGQRCGWIPIQYPIISECKCSC |  |  |  |  | percentage of EdU-negative (MCF7; [3]): 23.9 ± 0.44%; percentage of EdU-negative (MCF7; [4]): 25.4 ± 2.8%; percentage of EdU-negative (hTERT-HMEC; [3]): 4.77 ± 0.41%; percentage of EdU-negative (hTERT-HMEC; [4]): 5.81 ± 0.99%
MNCVCRLVLVVLSLWPDTAVAPGPPPGPPRVSPDPRAELDSTVLLTRSLLADTRQLAAQLRDKFPADGDHNLDSLPTLAMSAGALGALQLPGVLTRLRADLLSYLRHVQWLRRAGGSSLKTLEPELGTLQARLDRLLRRLQLLMSRLALPQPPPDPPAPPLAPPSSAWGGIRAAHAILGGLHLTLDWAVRGLLLLKTRL |  |  |  |  | percentage of EdU-negative (MCF7; [5]): 26.7 ± 0.82%; percentage of EdU-negative (MCF7; [6]): 25.4 ± 0.86%; percentage of EdU-negative (hTERT-HMEC; [5]): 4.51 ± 0.15%; percentage of EdU-negative (hTERT-HMEC; [6]): 6.32 ± 0.64%
MLALLVLVTVALASAHHGGEHFEGEKVFRVNVEDENHINIIRELASTTQIDFWKPDSVTQIKPHSTVDFRVKAEDTVTVENVLKQNELQYKVLISNLRNVVEAQFDSRVRATGHSYEKYNKWETIEAWTQQVATENPALISRSVIGTTFEGRAIYLLKVGKAGQNKPAIFMDCGFHAREWISPAFCQWFVREAVRTYGREIQVTELLDKLDFYVLPVLNIDGYIYTWTKSRFWRKTRSTHTGSSCIGTDPNRNFDAGWCEIGASRNPCDETYCGPAAESEKETKALADFIRNKLSSIKAYLTIHSYSQMMIYPYSYAYKLGENNAELNALAKATVKELASLHGTKYTYGPGATTIYPAAGGSDDWAYDQGIRYSFTFELRDTGRYGFLLPESQIRATCEETFLAIKYVASYVLEHLY | 24.5 ± 1.1% | 25.4 ± 0.42% | 5.24 ± 0.55% | 5.32 ± 0.42% | 
MSEVPVARVWLVLLLLTVQVGVTAGAPWQCAPCSAEKLALCPPVSASCSEVTRSAGCGCCPMCALPLGAACGVATARCARGLSCRALPGEQQPLHALTRGQGACVQESDASAPHAAEAGSPESPESTEITEEELLDNFHLMAPSEEDHSILWDAISTYDGSKALHVTNIKKWKEPCRIELYRVVESLAKAQETSGEEISKFYLPNCNKNGFYHSRQCETSMDGEAGLCWCVYPWNGKRIPGSPEIRGDPNCQIYFNVQN |  |  |  |  | percentage of EdU-negative (MCF7; [7]): 24.4 ± 0.48%; percentage of EdU-negative (MCF7; [8]): 29.6 ± 4%; percentage of EdU-negative (hTERT-HMEC; [7]): 5.41 ± 0.56%; percentage of EdU-negative (hTERT-HMEC; [8]): 9.21 ± 1.1%
MKLGLLCALLSLLAGHGWADTRAIGAEECRPNSQPWQAGLFHLTRLFCGATLISDRWLLTAAHCRKPYLWVRLGEHHLWKWEGPEQLFRVTDFFPHPGFNKDLSANDHNDDIMLIRLPRQARLSPAVQPLNLSQTCVSPGMQCLISGWGAVSSPKALFPVTLQCANISILENKLCHWAYPGHISDSMLCAGLWEGGRGSCQGDSGGPLVCNGTLAGVVSGGAEPCSRPRRPAVYTSVCHYLDWIQEIMEN [Q9UKQ9] | 26.66 ± 0.14% | 29.4 ± 2.3% | 5.253 ± 0.046% | 5.62 ± 1.2% | 
